Assay results as given in patent publication US20240034786A1 (WUXI BIOLOGICS IRELAND, published 2024).

Experiments:
[1] = molecular target: T1, Cyno P-cadherin on W319-CHOK1.cynoPro1.FL cells (cynomolgus, UniProt A0A2K5WPN9 108-829); assay: FACS on CHOK1 cells transiently expressing cyno P-cadherin
T1 construct: whole, on cells; also called cynomolgus P-cadherin; W391-CHOK1.cynoPro1.FL (transient)
Protocol: Binding of the test antibodies to P-cadherin expressed on cells was determined by flow cytometry analysis. […] 1×10⁵ cells/well (100 μL) were added to each well of a 96-well U-plate (Corning, #3799) and centrifuged at 1500 rpm (Eppendorf, #5810R) for 5 minutes before removing the supernatant. Antibodies serially diluted in 1% BSA/1×PBS (Ca+/Mg+) were added at 100 μL/well to the pelleted cells and incubated at 4° C. for 1 hour. Anon-related hIgG1 antibody was used as an isotype control. Cells were washed two times with 180 μL/well of 1% BSA/1×PBS (Ca+/Mg+) by centrifugation at 1500 rpm for 5 minutes at 4° C. Pelleted cells were resuspended in 100 μL/well Alexa647 conjugated Goat anti-human IgG Fc (Jackson, #109-605-098) 1:500 diluted in 1% BSA/1×PBS (Ca+/Mg+) for 30 minutes at 4° C. in the dark. Cells were then washed two times as described above. After the final wash, cells were resuspended in 100 μL 1% BSA/1×PBS (Ca+/Mg+) and fluorescence values were measured with a FACS Canto II cytometer (BD Biosciences). The amount of cell surface bound anti-P-cadherin antibody was assessed by measuring the mean fluorescence (MFI). The FACS raw data were analyzed by FlowJo software, wells containing no antibody or secondary antibody only were used to establish background fluorescence. […]
Binding of the test antibodies to cynomolgus P-cadherin expressed on cells was determined by flow cytometry analysis. […]

[2] = molecular target: T2, Human P-cadherin on cells (human, UniProt P22223 108-829); assay: FACS on HCT-116 cells
T2 construct: whole, on cells; Endogenous P-cadherin on tumour cell lines; also called hPro1
T2 sequence (P22223 108-829): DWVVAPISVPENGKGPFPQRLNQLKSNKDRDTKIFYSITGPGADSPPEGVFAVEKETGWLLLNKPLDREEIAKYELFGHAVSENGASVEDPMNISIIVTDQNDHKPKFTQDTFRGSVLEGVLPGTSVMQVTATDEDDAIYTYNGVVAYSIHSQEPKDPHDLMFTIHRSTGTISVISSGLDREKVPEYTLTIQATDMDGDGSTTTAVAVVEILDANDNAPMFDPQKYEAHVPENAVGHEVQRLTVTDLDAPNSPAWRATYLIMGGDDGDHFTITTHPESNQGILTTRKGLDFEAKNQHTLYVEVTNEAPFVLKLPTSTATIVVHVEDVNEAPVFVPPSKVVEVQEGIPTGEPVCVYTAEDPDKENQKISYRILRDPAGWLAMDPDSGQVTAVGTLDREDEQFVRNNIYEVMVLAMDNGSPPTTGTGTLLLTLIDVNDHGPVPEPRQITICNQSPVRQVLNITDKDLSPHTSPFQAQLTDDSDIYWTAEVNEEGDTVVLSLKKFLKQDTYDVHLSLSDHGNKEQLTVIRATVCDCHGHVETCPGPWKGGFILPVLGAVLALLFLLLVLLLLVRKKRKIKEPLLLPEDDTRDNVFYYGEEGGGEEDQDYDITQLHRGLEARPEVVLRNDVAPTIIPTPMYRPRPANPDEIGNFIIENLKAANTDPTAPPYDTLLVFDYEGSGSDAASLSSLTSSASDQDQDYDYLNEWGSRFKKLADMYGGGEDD
Protocol: Binding of the test antibodies to P-cadherin expressed on cells was determined by flow cytometry analysis. […] 1×10⁵ cells/well (100 μL) were added to each well of a 96-well U-plate (Corning, #3799) and centrifuged at 1500 rpm (Eppendorf, #5810R) for 5 minutes before removing the supernatant. Antibodies serially diluted in 1% BSA/1×PBS (Ca+/Mg+) were added at 100 μL/well to the pelleted cells and incubated at 4° C. for 1 hour. Anon-related hIgG1 antibody was used as an isotype control. Cells were washed two times with 180 μL/well of 1% BSA/1×PBS (Ca+/Mg+) by centrifugation at 1500 rpm for 5 minutes at 4° C. Pelleted cells were resuspended in 100 μL/well Alexa647 conjugated Goat anti-human IgG Fc (Jackson, #109-605-098) 1:500 diluted in 1% BSA/1×PBS (Ca+/Mg+) for 30 minutes at 4° C. in the dark. Cells were then washed two times as described above. After the final wash, cells were resuspended in 100 μL 1% BSA/1×PBS (Ca+/Mg+) and fluorescence values were measured with a FACS Canto II cytometer (BD Biosciences). The amount of cell surface bound anti-P-cadherin antibody was assessed by measuring the mean fluorescence (MFI). The FACS raw data were analyzed by FlowJo software, wells containing no antibody or secondary antibody only were used to establish background fluorescence. Binding EC50 values were obtained by the four-parameter non-linear regression analysis using GraphPad Prism6 software.

[3] = molecular target: T3, WBP319-hPro3.ECD.hFcHis (R&D) (human, UniProt P19022 160-724); assay: capture ELISA, antigen held by anti-His antibody
T3 construct: extracellular domain; Bought protein; the text calls it ECD.His, the code says hFcHis; also called human N-Cadherin.ECD.His; Human N-Cadherin; not shown: human Fc and His tag by the code hFcHis
T3 sequence (looked up): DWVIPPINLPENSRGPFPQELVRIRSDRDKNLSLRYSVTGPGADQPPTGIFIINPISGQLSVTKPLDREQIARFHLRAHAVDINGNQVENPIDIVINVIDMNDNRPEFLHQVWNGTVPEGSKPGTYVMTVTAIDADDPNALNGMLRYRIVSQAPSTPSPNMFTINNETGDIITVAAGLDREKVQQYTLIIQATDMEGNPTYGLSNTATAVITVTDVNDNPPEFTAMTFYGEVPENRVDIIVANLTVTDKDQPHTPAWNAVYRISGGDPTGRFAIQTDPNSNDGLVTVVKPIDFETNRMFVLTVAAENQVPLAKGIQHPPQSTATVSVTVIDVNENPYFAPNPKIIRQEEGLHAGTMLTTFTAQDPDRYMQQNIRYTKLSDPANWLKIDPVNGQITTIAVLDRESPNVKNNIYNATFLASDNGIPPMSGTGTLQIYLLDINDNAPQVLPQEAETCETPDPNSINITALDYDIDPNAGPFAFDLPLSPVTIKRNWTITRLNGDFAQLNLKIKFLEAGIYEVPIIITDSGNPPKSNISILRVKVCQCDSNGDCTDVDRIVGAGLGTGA
Protocol: The binding of the antibodies to human E-Cadherin.ECD.His (R&D-8505-NC-050, WBP319-hPro2.ECD.His (R&D)) and human N-Cadherin.ECD.His (R&D-1388-NC-050, WBP319-hPro3.ECD.hFcHis (R&D)) were tested by a captured protein binding ELISA. 96-well high protein binding ELISA plates (Nunc MaxiSorp, ThermoFisher, Cat #: 442404) were coated overnight at 4° C. with 1 μg/mL capture antibody (THETM His Tag mAb, GenScript, Cat #: A00186) in Carbonate-bicarbonate buffer (20 mM Na2CO3, 180 mM NaHCO3, pH=9.2). All wells were washed three time with 300 μL per well of PBS/0.5‰ Tween-20 (v/v) and all the following wash steps in the assay were performed the same. The wells were then blocked for one hour with 3% milk (Shanghai Dingguo-DH220)/1×PBS (Ca+/Mg+) (Gibco, #14040-117) and washed three times, followed by binding of 1 μg/mL antigens in 3% milk/1×PBS (Ca+/Mg+) for 1 hour at room temperature and three washes afterwards. […]
For the binding detection, 100 μL Tetramethylbenzidine (TMB) Substrate solution (Invitrogen, Cat #: 002023) was added to all wells for 10 minutes before stopping the reaction with 100 μL 2M HCl. The extent of the testing Abs binding to WBP319-hPro2.ECD.His (R&D)) and WBP319-hPro3.ECD.hFcHis (R&D) were determined by measuring the OD450 absorbance using the SpectraMax® M5e microplate reader. […]

[4] = molecular target: T2, Human P-cadherin on cells; assay: cell-based or functional assay

- EC50 [1]: 0.095 nM
- EC50 [2]: 0.21 nM
- EC50 [3]: > 100 nM
- ADCC reporter gene assay, EC50 [4]: 0.052 nM
- ADCC reporter gene assay, Max Fold Change [4]: 145 fold
B1: W3195-1.53.1-p1-uIgG1L (antibody)
heavy: not shown
light: SYELTQPPSVSVSPGQTAQITCSGDKLGDKFASWYQQKSGQSPVVVIYQDNKRPSGFPERFSGSNSGNTATLTISGTQAMDEADYYCQAWDSSIVVFGGGTKLTVLGQPKAAPSVTLFPPSSEELQANKATLVCLISDFYPGAVTVAWKADSSPVKAGVETTTPSKQSNNKYAASSYLSLTPEQWKSHRSYSCQVTHEGSTVEKTVAPTECS
notes: also called W3195-p1 antibody
